The source of these data is patent US20220042033A1, “COMPOSITION AND METHOD FOR CONFERRING AND/OR ENHANCING TOLERANCE AGAINST HERBICIDES BY USING VARIANTS OF PPO” (FarmHannong Co., Ltd., priority 2017, published 2022).

Positions count from the first letter of the chain named. Names and notes keep the numbering of the source.

This assay deals with ApPPO1. Kind of assay: PPO enzyme activity of purified MBP-fused ApPPO1 wild type and variants. To be noted: PPO enzyme activity relative to ApPPO1 wild type; MBP-fused protein. In kind it is biochemical, Auxenochlorella protothecoides. As for the experimental part:
Thus, PPO proteins of wild type and variants were expressed as fused to MBP and were used for experiments.
The following process for purification of PPO protein was performed in a 4° C. cold room. […] The column was washed with 3 column volumes of buffer and the presence of protein in the washing solution was examined. When the protein was no longer detected, the washing procedure was terminated. Then, the MBP-PPO protein was eluted with approximately 2 column volumes of buffer containing 20 mM maltose. The protein concentration of each eluent was determined and the elution was stopped when the protein was no longer detected. Ten microliter of each fraction was investigated for protein quantification and SDS-PAGE analysis. The highly pure fractions of PPO protein variants were used for the enzyme assay.
Since protoporphyrinogen IX, a substrate of PPO protein, was not commercially available, it was chemically synthesized in the laboratory. Overall process was performed in dark under nitrogen stream. […] of protoporphyrin IX was dissolved in 20 ml of 20% (v/v) EtOH, and stirred under dark condition for 30 minutes. The obtained protoporphyrin IX solution was put into a 15 ml screw tube in an amount of 800 μl, and flushed with nitrogen gas for 5 minutes. To this, 1.5 g of sodium amalgam was added and vigorously shaken for 2 minutes. The lid was opened to exhaust hydrogen gas in the tube. Thereafter, the lid was closed and incubated for 3 minutes. The protoporphyrinogen IX solution was filtered using syringe and cellulose membrane filter. To 600 μl of the obtained protoporphyrinogen IX solution, approximately 300 μl of 2M MOPS [3-(N-morpholino) propanesulfonic acid] was added to adjust pH to 8.0. To determine the enzyme activity of PPO protein, a reaction mixture was prepared with the following composition (based on 10 ml): 50 mM Tris-Cl (pH 8.0); 50 mM NaCl; 0.04% (v/v) Tween 20; 40 mM glucose (0.072 g); 5 units glucose oxidase (16.6 mg); and 10 units catalase (1 μl).
Hundred and eighty microliters of a reaction mixture […] were placed in 96 well plates and 20 μl of purified PPO proteins were added. After 50 μl of the mineral oil was layered, the reaction was initiated by adding the substrate, protoporphyrinogen IX solution, to a final concentration of 50 μM. The reaction proceeded at room temperature for 30 min and the fluorescence of protoporphyrin IX was measured using Microplate reader (Sense, Hidex) (excitation: 405 nm; emission: 633 nm). To calculate the PPO enzyme activity, the protoporphyrinogen IX solution was kept open in the air overnight to oxidize the solution. To this, 2.7 N HCl was added, and the absorbance at 408 nm was measured. A standard curve was generated using standard protoporphyrin IX, and PPO activity was measured by calibration of protoporphyrin IX using the standard curve of protoporphyrin IX.
Activities of variants were presented relatively compared to that of wild type.

B1: V360M: ApPPO1 (SEQ ID NO: 1) variant (protein)
chain: MPFTHLKPLNRLLGSPRARHPHVAPQAVSVTNTSTTRPGGRSSAPGIPGDAEYDVVIVGAGISGLTTAQALAKQYSDAVPRLLVTEARDCVGGNIITRRDGGYQWEEGPNSFQPSDAVLRAAVDAGVADRLVLGDPKAPRYVYWGGRLRATPSGPDVLTFDLLSLWGKLRAGLGAAGFKAPLPEREESVKEFVTRNLGEEVFQRLIEPFCSGVYAGDPAKLSMKAAFGKVYDLEKGGGSIVGGVLALMKARKQKPPEPRPADLPPKPKGQTVGSFDKGLVTLPSAIAEELGDRVVTGWKLESIDRSGDRFQLTYDTPQGRKKVSARSVALTVPAYTAASLLESRFPKLGKALSSIYYPPMASVALSYPETAILPERLGSDGHLAGFGQLHPRTQGVTTLGTIYASSLFPGRVPEGKVLLLSYFGGATNTRVATMPHGEIVSQVDKDLRKMLIRSDAESPHTVNVTVWPRAIPQFNVGHTDLIQEAKDDLASQGWQGLHLGGNYVAGVALGKCMEAGYKQAAELASHVKSLAT
modifications: Synthetic (Protoporphyrinogen IX oxidase (ApPPO1) of Auxenochlorella protothecoides)
With B1, the “Activity (%)” value was found to be 59%.

B2: I402T: ApPPO1 (SEQ ID NO: 1) variant (protein)
chain: B1 chain with M360V, I402T
modifications: Synthetic (Protoporphyrinogen IX oxidase (ApPPO1) of Auxenochlorella protothecoides)
B2: the “Activity (%)” value came to 16%.

B3: F386V + Y422M: ApPPO1 (SEQ ID NO: 1) variant (protein)
chain: B1 chain with M360V, F386V, Y422M
modifications: Synthetic (Protoporphyrinogen IX oxidase (ApPPO1) of Auxenochlorella protothecoides)
With B3, the “Activity (%)” value was determined as 65%.

B4: V360I + Y422I: ApPPO1 (SEQ ID NO: 1) variant (protein)
chain: B1 chain with M360I, Y422I
modifications: Synthetic (Protoporphyrinogen IX oxidase (ApPPO1) of Auxenochlorella protothecoides)
In the case of B4, the “Activity (%)” value is 16%.

B5: F386V: ApPPO1 (SEQ ID NO: 1) variant (protein)
chain: B1 chain with M360V, F386V
modifications: Synthetic (Protoporphyrinogen IX oxidase (ApPPO1) of Auxenochlorella protothecoides)
For B5, the “Activity (%)” value came out at 86%.

B6: L389T: ApPPO1 (SEQ ID NO: 1) variant (protein)
chain: B1 chain with M360V, L389T
modifications: Synthetic (Protoporphyrinogen IX oxidase (ApPPO1) of Auxenochlorella protothecoides)
In the case of B6, the “Activity (%)” value is listed as 11%.

B7: R140A: ApPPO1 (SEQ ID NO: 1) variant (protein)
chain: B1 chain with R140A, M360V
modifications: Synthetic (Protoporphyrinogen IX oxidase (ApPPO1) of Auxenochlorella protothecoides)
Take B7: the “Activity (%)” value was found to be 88%.

B8: Y422I: ApPPO1 (SEQ ID NO: 1) variant (protein)
chain: B1 chain with M360V, Y422I
modifications: Synthetic (Protoporphyrinogen IX oxidase (ApPPO1) of Auxenochlorella protothecoides)
Take B8: the “Activity (%)” value is recorded as 91%.

B9: I402T + Y422M: ApPPO1 (SEQ ID NO: 1) variant (protein)
chain: B1 chain with M360V, I402T, Y422M
modifications: Synthetic (Protoporphyrinogen IX oxidase (ApPPO1) of Auxenochlorella protothecoides)
Take B9: the “Activity (%)” value was 21%.

B10: L389T + Y422M: ApPPO1 (SEQ ID NO: 1) variant (protein)
chain: B1 chain with M360V, L389T, Y422M
modifications: Synthetic (Protoporphyrinogen IX oxidase (ApPPO1) of Auxenochlorella protothecoides)
Consider B10, for which the “Activity (%)” value was found to be 15%.

B11: S362V + Y422I: ApPPO1 (SEQ ID NO: 1) variant (protein)
chain: B1 chain with M360V, S362V, Y422I
modifications: Synthetic (Protoporphyrinogen IX oxidase (ApPPO1) of Auxenochlorella protothecoides)
Turning to B11, the “Activity (%)” value is 21%.

B12: Y422T: ApPPO1 (SEQ ID NO: 1) variant (protein)
chain: B1 chain with M360V, Y422T
modifications: Synthetic (Protoporphyrinogen IX oxidase (ApPPO1) of Auxenochlorella protothecoides)
As for B12, the “Activity (%)” value came to 84%.

B13: Y422M: ApPPO1 (SEQ ID NO: 1) variant (protein)
chain: B1 chain with M360V, Y422M
modifications: Synthetic (Protoporphyrinogen IX oxidase (ApPPO1) of Auxenochlorella protothecoides)
Take B13: the “Activity (%)” value was determined as 93%.

B14: V360M + Y422M: ApPPO1 (SEQ ID NO: 1) variant (protein)
chain: B1 chain with Y422M
modifications: Synthetic (Protoporphyrinogen IX oxidase (ApPPO1) of Auxenochlorella protothecoides)
Regarding B14, the “Activity (%)” value was determined as 8%.

B15: F209A + Y422M: ApPPO1 (SEQ ID NO: 1) variant (protein)
chain: B1 chain with F209A, M360V, Y422M
modifications: Synthetic (Protoporphyrinogen IX oxidase (ApPPO1) of Auxenochlorella protothecoides)
Take B15: the “Activity (%)” value stood at 51%.
